The supplement of paper PMC9112550, “Optimization of the antimicrobial peptide Bac7 by deep mutational scanning” (BMC Biology, 2022)

Tested on: Escherichia coli TOP10
Test: shrunken log2 fold change of peptide-encoding DNA abundance (4.5 h post-induction vs induction); higher = less antimicrobial activity (less host growth inhibition)
Settings: time post-induction: 4.5 h; library: site-saturation at positions 5, 18, 19, 20
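Also: peptides expressed intracellularly from a pBAD plasmid library in pooled LB shake-flask culture, induced with 0.3% L-arabinose, DNA abundance read by NGS, three biological replicates, DESeq2 with apeglm shrinkage.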

Sequence | shrunken log2 fold change
RRIRLRPPRLPRPRPRPKCHPRP | -0.387
RRIRLRPPRLPRPRPRPKDAPRP | -0.11
RRIRLRPPRLPRPRPRPKELPRP | 0.0165
RRIRLRPPRLPRPRPRPKENPRP | 0.00493
RRIRLRPPRLPRPRPRPKFTPRP | -0.289
RRIRLRPPRLPRPRPRPKGWPRP | 0.342
RRIRLRPPRLPRPRPRPKIAPRP | -0.203
RRIRLRPPRLPRPRPRPKITPRP | -0.203
RRIRLRPPRLPRPRPRPKIYPRP | -0.492
RRIRLRPPRLPRPRPRPKKFPRP | -0.322
RRIRLRPPRLPRPRPRPKKHPRP | -0.154
RRIRLRPPRLPRPRPRPKNQPRP | -0.202
RRIRLRPPRLPRPRPRPKPAPRP | 0.679
RRIRLRPPRLPRPRPRPKPLPRP | 0.144
RRIRLRPPRLPRPRPRPKPNPRP | 0.288
RRIRLRPPRLPRPRPRPKPWPRP | 0.387
RRIRLRPPRLPRPRPRPKPYPRP | 0.00713
RRIRLRPPRLPRPRPRPKQLPRP | -0.0685
RRIRLRPPRLPRPRPRPKQQPRP | -0.134
RRIRLRPPRLPRPRPRPKQYPRP | -0.661
RRIRLRPPRLPRPRPRPKSMPRP | -0.0449
RRIRLRPPRLPRPRPRPKVGPRP | 0.109
RRIRLRPPRLPRPRPRPKWHPRP | -0.207
RRIRLRPPRLPRPRPRPKYDPRP | -0.0843
RRIRLRPPRLPRPRPRPKYSPRP | -0.622

Sequence | shrunken log2 fold change
RRIRLRPPRLPRPRPRPLAAPRP | 0.345
RRIRLRPPRLPRPRPRPLCNPRP | -0.453
RRIRLRPPRLPRPRPRPLCYPRP | -0.15
RRIRLRPPRLPRPRPRPLEKPRP | -0.0425
RRIRLRPPRLPRPRPRPLHCPRP | 0.118
RRIRLRPPRLPRPRPRPLIRPRP | -0.547
RRIRLRPPRLPRPRPRPLMHPRP | 0.0668
RRIRLRPPRLPRPRPRPLMVPRP | -0.326
RRIRLRPPRLPRPRPRPLMYPRP | -0.327
RRIRLRPPRLPRPRPRPLNFPRP | -0.268
RRIRLRPPRLPRPRPRPLNMPRP | -0.461
RRIRLRPPRLPRPRPRPLNRPRP | -0.317
RRIRLRPPRLPRPRPRPLPMPRP | 0.0573
RRIRLRPPRLPRPRPRPLPWPRP | 0.334
RRIRLRPPRLPRPRPRPLQAPRP | 0.128
RRIRLRPPRLPRPRPRPLQEPRP | -0.101
RRIRLRPPRLPRPRPRPLQKPRP | 0.141
RRIRLRPPRLPRPRPRPLQNPRP | 0.166
RRIRLRPPRLPRPRPRPLRVPRP | 0.4
RRIRLRPPRLPRPRPRPLTDPRP | 0.133
RRIRLRPPRLPRPRPRPLTGPRP | -0.0782
RRIRLRPPRLPRPRPRPLTSPRP | -0.179
RRIRLRPPRLPRPRPRPLVCPRP | -0.0954
RRIRLRPPRLPRPRPRPLWQPRP | -0.0523
RRIRLRPPRLPRPRPRPLWRPRP | 0.785

Sequence | shrunken log2 fold change
RRIRLRPPRLPRPRPRPLWWPRP | 0.531
RRIRLRPPRLPRPRPRPLYDPRP | -0.924
RRIRLRPPRLPRPRPRPLYGPRP | -0.249
RRIRLRPPRLPRPRPRPMANPRP | -0.0744
RRIRLRPPRLPRPRPRPMDIPRP | -0.568
RRIRLRPPRLPRPRPRPMEEPRP | 0.156
RRIRLRPPRLPRPRPRPMFCPRP | -0.752
RRIRLRPPRLPRPRPRPMFDPRP | -0.249
RRIRLRPPRLPRPRPRPMFGPRP | 0.109
RRIRLRPPRLPRPRPRPMFMPRP | -0.208
RRIRLRPPRLPRPRPRPMHHPRP | 0.0581
RRIRLRPPRLPRPRPRPMICPRP | 0.13
RRIRLRPPRLPRPRPRPMINPRP | -0.224
RRIRLRPPRLPRPRPRPMKHPRP | -0.409
RRIRLRPPRLPRPRPRPMKNPRP | -0.303
RRIRLRPPRLPRPRPRPMKQPRP | 0.132
RRIRLRPPRLPRPRPRPMKTPRP | -0.034
RRIRLRPPRLPRPRPRPMKVPRP | -0.00674
RRIRLRPPRLPRPRPRPMKWPRP | 0.0101
RRIRLRPPRLPRPRPRPMLSPRP | 0.0192
RRIRLRPPRLPRPRPRPMMAPRP | -0.137
RRIRLRPPRLPRPRPRPMMNPRP | -0.18
RRIRLRPPRLPRPRPRPMMRPRP | 0.196
RRIRLRPPRLPRPRPRPMNGPRP | -0.618
RRIRLRPPRLPRPRPRPMNLPRP | -0.31

Sequence | shrunken log2 fold change
RRIRLRPPRLPRPRPRPMNMPRP | -0.0334
RRIRLRPPRLPRPRPRPMPAPRP | 0.221
RRIRLRPPRLPRPRPRPMPGPRP | 0.437
RRIRLRPPRLPRPRPRPMPMPRP | 0.0663
RRIRLRPPRLPRPRPRPMPVPRP | 0.132
RRIRLRPPRLPRPRPRPMQMPRP | -0.11
RRIRLRPPRLPRPRPRPMQQPRP | 0.0192
RRIRLRPPRLPRPRPRPMRSPRP | 0.0143
RRIRLRPPRLPRPRPRPMTPPRP | -0.023
RRIRLRPPRLPRPRPRPMTSPRP | 0.142
RRIRLRPPRLPRPRPRPMTVPRP | -0.108
RRIRLRPPRLPRPRPRPMTWPRP | -0.384
RRIRLRPPRLPRPRPRPMYCPRP | -0.0105
RRIRLRPPRLPRPRPRPNAEPRP | 0.143
RRIRLRPPRLPRPRPRPNAGPRP | 0.0644
RRIRLRPPRLPRPRPRPNANPRP | -0.101
RRIRLRPPRLPRPRPRPNAPPRP | 0.0456
RRIRLRPPRLPRPRPRPNARPRP | 0.1
RRIRLRPPRLPRPRPRPNAWPRP | 0.0821
RRIRLRPPRLPRPRPRPNCQPRP | 0.0269
RRIRLRPPRLPRPRPRPNCSPRP | 0.121
RRIRLRPPRLPRPRPRPNDGPRP | -0.127
RRIRLRPPRLPRPRPRPNDVPRP | -0.111
RRIRLRPPRLPRPRPRPNEKPRP | -0.00697
RRIRLRPPRLPRPRPRPNFGPRP | 0.0635

Sequence | shrunken log2 fold change
RRIRLRPPRLPRPRPRPNGTPRP | -0.221
RRIRLRPPRLPRPRPRPNIEPRP | -0.304
RRIRLRPPRLPRPRPRPNKNPRP | -0.366
RRIRLRPPRLPRPRPRPNLCPRP | 0.119
RRIRLRPPRLPRPRPRPNLLPRP | 0.153
RRIRLRPPRLPRPRPRPNLWPRP | 0.321
RRIRLRPPRLPRPRPRPNMMPRP | -0.762
RRIRLRPPRLPRPRPRPNNAPRP | -0.221
RRIRLRPPRLPRPRPRPNNIPRP | -0.559
RRIRLRPPRLPRPRPRPNPFPRP | -0.334
RRIRLRPPRLPRPRPRPNQAPRP | -0.0446
RRIRLRPPRLPRPRPRPNQIPRP | -0.253
RRIRLRPPRLPRPRPRPNQVPRP | -0.294
RRIRLRPPRLPRPRPRPNRYPRP | 0.0611
RRIRLRPPRLPRPRPRPNTPPRP | -0.187
RRIRLRPPRLPRPRPRPNVFPRP | -0.301
RRIRLRPPRLPRPRPRPNVGPRP | 0.0116
RRIRLRPPRLPRPRPRPNVMPRP | -0.0669
RRIRLRPPRLPRPRPRPNVYPRP | -0.186
RRIRLRPPRLPRPRPRPNWGPRP | 0.00356
RRIRLRPPRLPRPRPRPNYNPRP | -0.74
RRIRLRPPRLPRPRPRPNYSPRP | -0.718
RRIRLRPPRLPRPRPRPNYWPRP | -0.0686
RRIRLRPPRLPRPRPRPPDWPRP | 0.427
RRIRLRPPRLPRPRPRPPGTPRP | 0.448

Sequence | shrunken log2 fold change
RRIRLRPPRLPRPRPRPPHYPRP | 0.0636
RRIRLRPPRLPRPRPRPPIKPRP | -0.179
RRIRLRPPRLPRPRPRPPIMPRP | -0.239
RRIRLRPPRLPRPRPRPPIWPRP | 0.0261
RRIRLRPPRLPRPRPRPPKFPRP | 0.028
RRIRLRPPRLPRPRPRPPKKPRP | 0.265
RRIRLRPPRLPRPRPRPPKPPRP | 0.555
RRIRLRPPRLPRPRPRPPMGPRP | 0.194
RRIRLRPPRLPRPRPRPPMRPRP | 1
RRIRLRPPRLPRPRPRPPNPPRP | 0.423
RRIRLRPPRLPRPRPRPPNRPRP | 0.0237
RRIRLRPPRLPRPRPRPPPRPRP | 1.66
RRIRLRPPRLPRPRPRPPQEPRP | 0.0145
RRIRLRPPRLPRPRPRPPRVPRP | 0.536
RRIRLRPPRLPRPRPRPPSTPRP | 0.00129
RRIRLRPPRLPRPRPRPPTLPRP | 0.4
RRIRLRPPRLPRPRPRPPTNPRP | 0.177
RRIRLRPPRLPRPRPRPPTQPRP | 0.376
RRIRLRPPRLPRPRPRPPTTPRP | 0.449
RRIRLRPPRLPRPRPRPPYAPRP | 0.296
RRIRLRPPRLPRPRPRPPYHPRP | -0.317
RRIRLRPPRLPRPRPRPPYVPRP | -0.0415
RRIRLRPPRLPRPRPRPQCKPRP | -0.425
RRIRLRPPRLPRPRPRPQDCPRP | 0.0274
RRIRLRPPRLPRPRPRPQEHPRP | -0.167
